# B1: contortrostatin (protein)
# chain: DAPANPCCDAATCKLTTGSQCADGLCCDQCKFMKEGTVCRRARGDDLDDYCNGISAGCPRNPFH
# Assays:
# [1] = biological target: T1, GPIIb/IIIa (integrin αIIbβ3) (Homo sapiens, UniProt P05106+P08514); experiment: ADP-induced platelet aggregation inhibition assay in platelet-rich plasma; format: cell-based; settings: inhibitor added one minute prior to ADP (1 μM)
# T1 construct: endogenous in cells; host or cells: platelets in fresh platelet-rich plasma
# Method: Different concentrations of native CN, Vicrostatin (VN), or rCN conformer were incubated with platelet-rich plasma. Addition of ADP induces platelet aggregation; VN, rCN conformer, or native CN were added one minute prior to ADP.
# The recombinant CN products were evaluated for biological activity by a platelet aggregation inhibition assay. According to this assay, CN binding to GPIIb/IIIa (integrin αIIbβ3) in an RGD dependent manner inhibits ADP induced platelet aggregation (Trikha, Rote et al. 1994). In this assay, potential inhibitors are added to fresh platelet-rich plasma, and after minute, ADP is added to a final concentration of 1 μM to induce aggregation. If inhibitor is present, functional aggregation will not occur. The IC50 is defined as the concentration at which 50% of the activity is inhibited, and is used as a measure of the potency of an inhibitor.
# [2] = tested on: MDA-MB-435 breast carcinoma cells; experiment: Inhibition of MDA-MB-435 cell adhesion to immobilized fibronectin (MTS readout); format: cell-based, human; settings: 0-1000 nM, 30 min pretreatment, adhesion 1 hr at 25° C.
# Method: (§1) Pretreated cells were allowed to adhere for 1 hr at 25° C., and after non-adherent cells were washed away, the number of adherent cells for each condition was estimated using the MTS cell viability assay.
# (§2) Pretreated cells were allowed to adhere for 1 hr at 25° C., and after non-adherent cells were washed away, the number of adherent cells for each condition was estimated using the MTS cell viability assay. In the cell invasion assay, an invasion chamber consisting of cell culture inserts that fit into 24-well tissue culture plate has been utilized. The inserts contain an 8 μm-pore size polycarbonate membrane, over which a thin layer of ECMatrix™ was applied. The ECMatrix™ serves as an in vitro reconstituted basement membrane and is a solid gel of ECM proteins prepared from the Engelbreth Holm-Swarm (EHS) mouse tumor. The ECM layer occludes the membranes pores, blocking non-invasive cells to migrate through. […] At the 8 hr time point the cells that invaded through the pores into the lower chamber were measured. The numbers of invaded cells for each condition were approximated by quantitating the retrieved labeled DNA using a fluorescent plate reader. The results were calculated in % invasion, where the untreated control was considered as 100% invasion.
# [3] = tested on: MDA-MB-435 breast carcinoma cells; experiment: Inhibition of MDA-MB-435 cell adhesion to immobilized vitronectin (MTS readout); format: cell-based, human; settings: 0-1000 nM, 30 min pretreatment, adhesion 1 hr at 25° C.
# Method: as §1, §2
# [4] = Liposome encapsulation, size and stability (BCA protein assay after liposome disruption); format: physicochemical
# Method: Endotoxin-free VN containing liposomes (referred to as LVN) and endotoxin-free native CN containing liposomes (referred to as LCN) were prepared utilizing a probe sonication previously described (Fujii, Chang et al. 1997). Briefly, the lipids (disteroylphosphatidylcholine, cholesterol and polyethylene glycol derivatized lipid) were dissolved in a chloroform/methanol solution. Thin lipid films were created by pipetting aliquots of the lipid solution into round bottom glass tubes followed by solvent evaporation at 65° C. under a stream of nitrogen gas. The films were placed under vacuum for at least 24 hours to remove residual organic solvent. Liposomes formed following hydration of the lipid films with native CN or VN dissolved in 10 mM sodium phosphate, 9% sucrose, pH 7.2. The mixture was incubated at 65° C. for 5-10 minutes. Hydration was followed by probe sonication until the suspension was translucent. […]
# The concentration of liposome entrapped CN/VN was determined by disruption of the liposomes with chloroform/methanol/water (10:40:50) followed by centrifugation at 14,000×g. The supernatant was analyzed for CN/VN concentration using BCA protein assay (Smith, Krohn et al. 1985). The encapsulation efficiency was assessed by BCA protein determination following disruption of the LrCN with a solution of H2O:methanol:chloroform.
molecule,measurement,setting,value
B1,IC50,[1],~60 nM
same,inhibition of MDA-MB-435 cell adhesion to immobilized fibronectin (Fn),[2],inhibited adhesion
same,inhibition of MDA-MB-435 cell adhesion to immobilized vitronectin (Vn),[3],inhibited adhesion
same,protein in the encapsulation solution entrapped within the liposomes,[4],80%
